The target of experiment [1] is Recombinant human his-tagged IGF 1R extracellular domain protein (human) (UniProt P08069). The experiment is described as follows: SPR, captured IgG, IGF-1R ECD-his analyte, dissociation pH 6.
The target is the same in experiment [2]. The experiment is described as follows: SPR, captured IgG, IGF-1R ECD-his analyte, dissociation pH 7.4. Background: In SPR one partner is held on a chip, and binding of the other changes the refractive index at the surface.

B1: VRDN-02501 (antibody, V domains shown)
VH: EVQLVQSGGGLVKPGGSLRLSCAASHFTFSSFAMHWVRQAPGKGLEWISVIDTRGATYYADSVKGRFTISRDNAKNSLYLQMNSLRAEDTAVYYCARLGNFYYGMDVWGQGTTVTVSS
VL: EIVLTQSPGTLSVSPGERATLSCRASQSIGSSLHWYQQKPGQAPRLLIKYASQSLSGIPDRFSGSGSGTDFTLTISRLEPEDFAVYYCHQSSRLPHTFGQGTKVEIK
Take B1: in experiment [1], the Kd (usually the free concentration of one partner at which half of the binding sites on the other are occupied at equilibrium, for simple one-to-one binding) was 25.9 pM; the off-rate constant (koff) (usually the first-order rate constant of dissociation) amounted to 1e-06 s⁻¹; the kon (commonly a measure of how fast the partners come together) turned out to be 38600 M⁻¹ s⁻¹. For the same molecule, in experiment [2], the Kd amounted to 911 pM, the off-rate constant (koff) came out at 0.00015 s⁻¹ and the on-rate (kon) was determined as 165000 M⁻¹ s⁻¹.

B2: VRDN-02519 (antibody, V domains shown)
VH: EVQLVQSGGGLVKPGGSLRLSCAASGFTFSSFAMHWVRQAPGKGLEWISVIDTRGATYYADSVKGRFTISRDNAKNSLYLQMNSLRAEDTAVYYCARLHNFYYGMDVWGQGTTVTVSS
VL: EIVLTQSPGTLSVSPGERATLSCRASQSIGSSLHWYQQKPGQAPRLLIKYASQSLSGIPDRFSGSGSGTDFTLTISRLEPEDFAVYYCHQSSRLPHTFGQGTKVEIK
B2: in experiment [1], the Kd is 16900 pM, the off-rate constant (koff) was found to be 0.000627 s⁻¹ and the on-rate (kon) is 37100 M⁻¹ s⁻¹. Besides, in experiment [2], the dissociation constant Kd came to 10500 pM, the koff amounted to 0.00366 s⁻¹ and the association rate constant (kon) was 348000 M⁻¹ s⁻¹.

B3: VRDN-02518 (antibody, V domains shown)
VH: EVQLVQSGGGLVKPGGSLRLSCAASGFTFSSFAMHWVRQAPGKGLEWISVIDTRGATYYADSVKGRFTISRDNAKNSLYLQMNSLRAEDTAVYYCARHGNFYYGMDVWGQGTTVTVSS
VL: EIVLTQSPGTLSVSPGERATLSCRASQSIGSSLHWYQQKPGQAPRLLIKYASQSLSGIPDRFSGSGSGTDFTLTISRLEPEDFAVYYCHQSSRLPHTFGQGTKVEIK
On to B3, for which, in experiment [1], the dissociation constant (Kd) turned out to be 38.5 pM, the off-rate constant (koff) is 1e-06 s⁻¹ and the kon was found to be 26000 M⁻¹ s⁻¹. In experiment [2], the Kd amounted to 549 pM, the off-rate (koff) worked out at 6.31e-05 s⁻¹ and the association rate constant (kon) is 115000 M⁻¹ s⁻¹.

B4: VRDN-02527 (antibody, V domains shown)
VH: EVQLVQSGGGLVKPGGSLRLSCAASGFTFSSFAMHWVRQAPGKGLEWISVIDTRGATYYADSVKGRFTISRDNAKNSLYLQMNSLRAEDTAVYYCARLGNFYYGMDHWGQGTTVTVSS
VL: EIVLTQSPGTLSVSPGERATLSCRASQSIGSSLHWYQQKPGQAPRLLIKYASQSLSGIPDRFSGSGSGTDFTLTISRLEPEDFAVYYCHQSSRLPHTFGQGTKVEIK
In the case of B4, in experiment [1], the Kd is 25.8 pM, the koff was found to be 1e-06 s⁻¹ and the kon was found to be 38800 M⁻¹ s⁻¹. Besides, in experiment [2], the Kd turned out to be 225 pM, the koff worked out at 2.16e-05 s⁻¹ and the kon was determined as 95900 M⁻¹ s⁻¹.

B5: VRDN-02529 (antibody, V domains shown)
VH: EVQLVQSGGGLVKPGGSLRLSCAASGFTFSSFAMHWVRQAPGKGLEWISVIDTRGATYYADSVKGRFTISRDNAKNSLYLQMNSLRAEDTAVYYCARLGNFYYGMDVWGQGTTVTVSS
VL: EIVLTQSPGTLSVSPGERATLSCRHSQSIGSSLHWYQQKPGQAPRLLIKYASQSLSGIPDRFSGSGSGTDFTLTISRLEPEDFAVYYCHQSSRLPHTFGQGTKVEIK
Consider B5, for which, in experiment [1], the dissociation constant Kd was found to be 54.1 pM, the koff is 1e-06 s⁻¹ and the kon worked out at 18500 M⁻¹ s⁻¹. Moreover, in experiment [2], the dissociation constant Kd is 3800 pM, the off-rate constant (koff) was 0.000103 s⁻¹ and the association rate constant (kon) is 27100 M⁻¹ s⁻¹.

B6: VRDN-02525 (antibody, V domains shown)
VH: EVQLVQSGGGLVKPGGSLRLSCAASGFTFSSFAMHWVRQAPGKGLEWISVIDTRGATYYADSVKGRFTISRDNAKNSLYLQMNSLRAEDTAVYYCARLGNFYYGHDVWGQGTTVTVSS
VL: EIVLTQSPGTLSVSPGERATLSCRASQSIGSSLHWYQQKPGQAPRLLIKYASQSLSGIPDRFSGSGSGTDFTLTISRLEPEDFAVYYCHQSSRLPHTFGQGTKVEIK
In the case of B6, in experiment [1], the Kd is 4580 pM, the off-rate constant (koff) was 0.000147 s⁻¹ and the kon is 32100 M⁻¹ s⁻¹. Besides, in experiment [2], the Kd stood at 7.58 pM, the koff was found to be 1e-06 s⁻¹ and the on-rate constant (kon) amounted to 132000 M⁻¹ s⁻¹.

B7: VRDN-02524 (antibody, V domains shown)
VH: EVQLVQSGGGLVKPGGSLRLSCAASGFTFSSFAMHWVRQAPGKGLEWISVIDTRGATYYADSVKGRFTISRDNAKNSLYLQMNSLRAEDTAVYYCARLGNFYYHMDVWGQGTTVTVSS
VL: EIVLTQSPGTLSVSPGERATLSCRASQSIGSSLHWYQQKPGQAPRLLIKYASQSLSGIPDRFSGSGSGTDFTLTISRLEPEDFAVYYCHQSSRLPHTFGQGTKVEIK
As to B7, in experiment [1], the Kd was 1220 pM, the dissociation rate constant (koff) turned out to be 4.66e-05 s⁻¹ and the on-rate constant (kon) was determined as 38300 M⁻¹ s⁻¹. For the same molecule, in experiment [2], the equilibrium dissociation constant (Kd) came to 7.52 pM, the koff was 1e-06 s⁻¹ and the on-rate constant (kon) came to 133000 M⁻¹ s⁻¹.

B8: VRDN-02522 (antibody, V domains shown)
VH: EVQLVQSGGGLVKPGGSLRLSCAASGFTFSSFAMHWVRQAPGKGLEWISVIDTRGATYYADSVKGRFTISRDNAKNSLYLQMNSLRAEDTAVYYCARLGNFHYGMDVWGQGTTVTVSS
VL: EIVLTQSPGTLSVSPGERATLSCRASQSIGSSLHWYQQKPGQAPRLLIKYASQSLSGIPDRFSGSGSGTDFTLTISRLEPEDFAVYYCHQSSRLPHTFGQGTKVEIK
With B8, in experiment [1], the dissociation constant Kd stood at 37.6 pM, the koff stood at 1e-06 s⁻¹ and the kon was 26600 M⁻¹ s⁻¹. In experiment [2], the Kd stood at 370 pM, the koff was 1.73e-05 s⁻¹ and the on-rate (kon) turned out to be 46700 M⁻¹ s⁻¹.

B9: VRDN-02528 (antibody, V domains shown)
VH: EVQLVQSGGGLVKPGGSLRLSCAASGFTFSSFAMHWVRQAPGKGLEWISVIDTRGATYYADSVKGRFTISRDNAKNSLYLQMNSLRAEDTAVYYCARLGNFYYGMDVWGQGTTVTVSS
VL: EIVLTQSPGTLSVSPGERATLSCHASQSIGSSLHWYQQKPGQAPRLLIKYASQSLSGIPDRFSGSGSGTDFTLTISRLEPEDFAVYYCHQSSRLPHTFGQGTKVEIK
In the case of B9, in experiment [1], the equilibrium dissociation constant (Kd) was determined as 24.6 pM, the koff was 1e-06 s⁻¹ and the kon was determined as 40600 M⁻¹ s⁻¹. For the same molecule, in experiment [2], the Kd is 252 pM, the koff is 3.55e-05 s⁻¹ and the kon came to 141000 M⁻¹ s⁻¹.

B10: VRDN-02520 (antibody, V domains shown)
VH: EVQLVQSGGGLVKPGGSLRLSCAASGFTFSSFAMHWVRQAPGKGLEWISVIDTRGATYYADSVKGRFTISRDNAKNSLYLQMNSLRAEDTAVYYCARLGHFYYGMDVWGQGTTVTVSS
VL: EIVLTQSPGTLSVSPGERATLSCRASQSIGSSLHWYQQKPGQAPRLLIKYASQSLSGIPDRFSGSGSGTDFTLTISRLEPEDFAVYYCHQSSRLPHTFGQGTKVEIK
B10: in experiment [1], the equilibrium dissociation constant (Kd) turned out to be 24.2 pM, the dissociation rate constant (koff) stood at 1e-06 s⁻¹ and the association rate constant (kon) was determined as 41400 M⁻¹ s⁻¹. Also, in experiment [2], the Kd worked out at 6.9 pM, the koff was found to be 1e-06 s⁻¹ and the kon was 145000 M⁻¹ s⁻¹.

B11: VRDN-02521 (antibody, V domains shown)
VH: EVQLVQSGGGLVKPGGSLRLSCAASGFTFSSFAMHWVRQAPGKGLEWISVIDTRGATYYADSVKGRFTISRDNAKNSLYLQMNSLRAEDTAVYYCARLGNHYYGMDVWGQGTTVTVSS
VL: EIVLTQSPGTLSVSPGERATLSCRASQSIGSSLHWYQQKPGQAPRLLIKYASQSLSGIPDRFSGSGSGTDFTLTISRLEPEDFAVYYCHQSSRLPHTFGQGTKVEIK
As for B11, in experiment [1], the dissociation constant Kd worked out at 50 pM, the koff amounted to 1e-06 s⁻¹ and the kon was 20000 M⁻¹ s⁻¹. Also, in experiment [2], the equilibrium dissociation constant (Kd) worked out at 1480 pM, the off-rate constant (koff) amounted to 7.2e-05 s⁻¹ and the on-rate constant (kon) was found to be 48500 M⁻¹ s⁻¹.

B12: VRDN-02523 (antibody, V domains shown)
VH: EVQLVQSGGGLVKPGGSLRLSCAASGFTFSSFAMHWVRQAPGKGLEWISVIDTRGATYYADSVKGRFTISRDNAKNSLYLQMNSLRAEDTAVYYCARLGNFYHGMDVWGQGTTVTVSS
VL: EIVLTQSPGTLSVSPGERATLSCRASQSIGSSLHWYQQKPGQAPRLLIKYASQSLSGIPDRFSGSGSGTDFTLTISRLEPEDFAVYYCHQSSRLPHTFGQGTKVEIK
B12: in experiment [1], the Kd is 36 pM, the dissociation rate constant (koff) stood at 1e-06 s⁻¹ and the kon turned out to be 27800 M⁻¹ s⁻¹. In experiment [2], the Kd was found to be 717 pM, the koff was found to be 2.74e-05 s⁻¹ and the on-rate constant (kon) came to 38200 M⁻¹ s⁻¹.

B13: VRDN-02517 (antibody, V domains shown)
VH: EVQLVQSGGGLVKPGGSLRLSCAASGFTFSSFAMHWVRQAPGKGLEWISVIDTRGATYYADSVKGRFTISRDNAKNSLYLQMNSLRAEDTAVYYCAHLGNFYYGMDVWGQGTTVTVSS
VL: EIVLTQSPGTLSVSPGERATLSCRASQSIGSSLHWYQQKPGQAPRLLIKYASQSLSGIPDRFSGSGSGTDFTLTISRLEPEDFAVYYCHQSSRLPHTFGQGTKVEIK
With B13, in experiment [1], the dissociation constant Kd came to 5070 pM, the koff amounted to 0.000265 s⁻¹ and the association rate constant (kon) turned out to be 52300 M⁻¹ s⁻¹. Further, in experiment [2], the equilibrium dissociation constant (Kd) was found to be 10700 pM, the koff is 0.00264 s⁻¹ and the on-rate constant (kon) is 247000 M⁻¹ s⁻¹.

B14: VRDN-02502 (antibody, V domains shown)
VH: EVQLVQSGGGLVKPGGSLRLSCAASGHTFSSFAMHWVRQAPGKGLEWISVIDTRGATYYADSVKGRFTISRDNAKNSLYLQMNSLRAEDTAVYYCARLGNFYYGMDVWGQGTTVTVSS
VL: EIVLTQSPGTLSVSPGERATLSCRASQSIGSSLHWYQQKPGQAPRLLIKYASQSLSGIPDRFSGSGSGTDFTLTISRLEPEDFAVYYCHQSSRLPHTFGQGTKVEIK
In the case of B14, in experiment [1], the Kd came to 37.5 pM, the off-rate (koff) is 1e-06 s⁻¹ and the on-rate (kon) came out at 26700 M⁻¹ s⁻¹. Also, in experiment [2], the dissociation constant Kd came out at 24.4 pM, the koff is 4.1e-06 s⁻¹ and the kon was 168000 M⁻¹ s⁻¹.

B15: VRDN-02516 (antibody, V domains shown)
VH: EVQLVQSGGGLVKPGGSLRLSCAASGFTFSSFAMHWVRQAPGKGLEWISVIDTRGATYYADSVKGRFTISRDNAKNSLYLQMNSLRAEDTAVYYCHRLGNFYYGMDVWGQGTTVTVSS
VL: EIVLTQSPGTLSVSPGERATLSCRASQSIGSSLHWYQQKPGQAPRLLIKYASQSLSGIPDRFSGSGSGTDFTLTISRLEPEDFAVYYCHQSSRLPHTFGQGTKVEIK
With B15, in experiment [1], the Kd amounted to 16800 pM, the koff was 0.00196 s⁻¹ and the kon amounted to 117000 M⁻¹ s⁻¹. In experiment [2], the Kd amounted to 2350 pM, the koff is 0.000418 s⁻¹ and the association rate constant (kon) came out at 178000 M⁻¹ s⁻¹.

The values are drawn from patent US20240343814A1.
